Laboratory results as given in patent publication US6130078.

Test system: NspHI restriction endonuclease (NspHIR) (Nostoc sp. (ATCC 29106))
Experiment: cleavage_in_vitro
Settings: cell extract dilutions 10^-1 to 10^-5 on lambda DNA

## bacteriophage lambda DNA
  activity (units per g wet cells): 186000
